From US20090269831A1 (REGENTS OF THE UNIVERSITY OF MINNESOTA, published 2009)
Numbering of substitutions follows the chain as printed. Numbers in names are those of the source.

B1: A3G198-384 (enzyme)
chain: DPPTFTFNFNNEPWVRGRHETYLCYEVERMHNDTWVLLNQRRGFLCNQAPHKHGFLEGRHAELCFLDVIPFWKLDLDQDYRVTCFTSWSPCFSCAQEMAKFISKNKHVSLCIFTARIYDDQGRCQEGLRTLAEAGAKISIMTYSEFKHCWDTFVDHQGCPFQPWDGLDEHSQDLSGRLRAILQNQEN
notes: also called CTD
B2: A3G-2K3A (enzyme)
chain: B1 chain with L37K, C46A, F113K, C124A, C159A
notes: released from the GST fusion with PreScission protease

How the values were obtained:
[1] = target: the molecule itself; experiment: size exclusion, Superdex 75 (self-association)
Protocol: GST-based constructs were expressed in E. coli strain BL21 DE3 RIL (Stratagene). Unlabeled proteins were produced by overnight expression at 17° C. in LB medium containing 1 mM IPTG and 200 μg/mL ampicillin. Isotope-labeled proteins were produced by overnight expression at 17° C. in M9 supplemented with ¹⁵NH₄Cl, ¹³C-labeled D-glucose and ²H water as previously described by Devany et al., Protein Sci. 13, 2252-259 (2004). Proteins were purified by sonicating cell pellets in lysis buffer [100 mM NaCl, 50 mM Na₂HPO₄/NaH₂PO₄ (pH7.0), protease inhibitor (Roche)], separating the soluble (supernatant) and insoluble (pellet) fractions by centrifugation (12,110 g, 20 min, 4° C.), binding to glutathione sepharose (GE healthcare), washing with lysis buffer and eluting with PreScission protease (GE Healthcare) in 1 mM DTT, 50 mM Na₂HPO₄/NaH₂PO₄ [pH7.4] and, finally, concentrating with Centricon filters (Millipore). Solubility was monitored by SDS PAGE, coomassie blue staining and/or immunoblotting as discussed above. […] GST and lysozyme were purchased from Sigma.

[2] = target: the molecule itself; experiment: sedimentation velocity analytical ultracentrifugation (self-association)
Protocol: Sedimentation Velocity Analytical Ultracentrifugation Experiments. A3G-2K3A was diluted to 0.15, 0.4, 0.8 or 1.2 mg/ml in a buffer containing 50 mM Na₂HPO₄/NaH₂PO₄ [pH7.4], 0.005% tween 20, 5 mM dithiothreitol and 50 μM ZnCl₂. Samples were then sedimented using a 4-hole rotor at 20° C. and 55,000 rpm. The rotor and cells were preequilibrated at 20° C. and the samples were kept on ice during protein preparation and dilution. Synthetic boundary cells were loaded with 430 μL of buffer and 420 μL of the appropriate sample solution. The cells were placed in the rotor and accelerated to 24,000 rpm while monitoring the transfer of the excess buffer in each cell. Subsequently, the rotor was stopped and then gently inverted to thoroughly mix the contents of the cells. The rotor was then equilibrated under vacuum at 20° C. and after a period of ˜1 hour at 20° C. the rotor was accelerated to 55,000 rpm. Interference scans were acquired at 1 minute intervals for 6 hours. The data for each loading concentration was analyzed using the program DcDt+ (version 2.0.7). See Philo, Anal. Biochem. 354, 238-246 (2006); and Philo, Anal. Biochem. 279, 151-163 (2000). The complete data set for A3G-2K3A was analyzed using Sedphat v4.4b using the model of a hybrid local continuous distribution and global discrete species. Schuck, Anal. Biochem. 320, 104-124 (2003). […]

Row | Protein | binding result [1] | binding result [2]
1 | B1 | no binding (tested: 1 mg (approx. 1 mL)) | 
2 | B2 |  | no binding (tested: 0.15, 0.4, 0.8 or 1.2 mg/ml)
